The values that follow come from article PMC3753642.

Broadly, the Kd is the equilibrium constant for the complex coming apart. A high value points to lower affinity.

Read-outs that look alike come from different tables or passages of the source.

Data set [1] addresses T1, Hfq TM (Escherichia coli, UniProt P0A6X3 1-102, R16A;R17A;R19D). Description: fluorescence anisotropy.
The target in data set [2] is T2, Hfq WT (Escherichia coli, UniProt P0A6X3 1-102). Description: fluorescence anisotropy. Background: In fluorescence polarisation assays a small probe gives low polarisation when free and higher when bound to something large.
Data set [3] concerns the target Hfq:R16A,S65C-Cy3 (Escherichia coli, UniProt P0A6X3 1-102, R16A;S65C). Description: stopped-flow FRET.
For data set [4], the target named is T3, Hfq:R16A (Escherichia coli, UniProt P0A6X3 1-102, R16A). Description: fluorescence anisotropy.
The target in data set [5] is Hfq:S38W (Escherichia coli, UniProt P0A6X3 1-102, S38W). Description: Trp fluorescence quenching.
The target in data set [6] is T3, Hfq:R16A. Description: fluorescence anisotropy. The source holds these as a separate data set.
In data set [7] the target is T1, Hfq TM. Description: fluorescence anisotropy. This is another data set of the same source.
The target of data set [8] is T2, Hfq WT. Description: fluorescence anisotropy. This is another data set of the same source.

Take CGAAUUUUUUAAGUGC (ssRNA) [D16]: the Kd in data set [1] is 17.5 nM; in data set [2] it was 22.5 nM; in data set [4] it was 39.8 nM. In addition, the binding result in data set [3] is “binds”.

As to GUGGUCAGUCGAGUGGAAAAAAAAAAAAAAAAAA (ssRNA) [Oligo CA], in data set [5], the binding result was “binds”.

With CGAAUUUUUUAAGUGC (ssRNA) [D16 unlabeled], in data set [5], the binding result was “binds”.

Regarding AAAAAAAAAAAAAAAAAA (ssRNA) [A18], the Kd was 13.2 nM in data set [2], 2.3 nM in data set [6] and 16.8 nM in data set [7].

Consider GUGGUCAGUCGAGUGGUUUUUU (ssRNA) [Oligo CU], for which the binding result in data set [5] is given as “binds”. Also, the Kd in data set [8] was 0.1 nM; in data set [6], 0.07 nM.
